Test in all cases: ITC
Background: ITC needs no label: the signal is the heat of the interaction.

In assay [1] the target is human factor X (zymogen) (Homo sapiens) (UniProt P00742).
Assay [2] deals with human activated factor X (Homo sapiens) (UniProt P00742).
Assay [3] has as its target human activated factor IX (Homo sapiens) (UniProt P00740).
In assay [4] the target is human factor IX (zymogen) (Homo sapiens) (UniProt P00740).
human factor IX (zymogen) (Homo sapiens), sequence (P00740 47-461): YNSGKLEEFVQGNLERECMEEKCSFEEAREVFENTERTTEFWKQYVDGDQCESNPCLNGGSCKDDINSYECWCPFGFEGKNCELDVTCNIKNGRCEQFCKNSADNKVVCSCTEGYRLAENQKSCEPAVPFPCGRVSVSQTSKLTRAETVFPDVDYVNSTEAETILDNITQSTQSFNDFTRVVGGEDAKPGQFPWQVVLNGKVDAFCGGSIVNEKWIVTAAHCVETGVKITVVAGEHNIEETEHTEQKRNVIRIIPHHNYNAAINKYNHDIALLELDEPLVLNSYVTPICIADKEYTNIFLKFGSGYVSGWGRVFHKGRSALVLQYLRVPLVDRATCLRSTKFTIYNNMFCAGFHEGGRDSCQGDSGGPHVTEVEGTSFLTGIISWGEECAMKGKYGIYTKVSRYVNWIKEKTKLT

human activated factor X (Homo sapiens), sequence (P00742 235-488, chain 1 of 2): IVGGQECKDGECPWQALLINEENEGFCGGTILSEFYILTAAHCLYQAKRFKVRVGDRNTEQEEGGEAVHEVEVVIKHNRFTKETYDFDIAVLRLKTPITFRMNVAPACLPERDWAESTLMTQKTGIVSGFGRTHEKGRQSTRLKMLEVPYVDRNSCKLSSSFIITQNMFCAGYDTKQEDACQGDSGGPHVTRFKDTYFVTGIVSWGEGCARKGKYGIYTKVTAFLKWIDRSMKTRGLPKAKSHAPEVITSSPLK
human activated factor X (Homo sapiens), sequence (P00742 235-488, chain 2 of 2): as the sequence (P00742 235-488, chain 1 of 2) above
human activated factor IX (Homo sapiens), sequence (P00740 47-191, chain 1 of 2): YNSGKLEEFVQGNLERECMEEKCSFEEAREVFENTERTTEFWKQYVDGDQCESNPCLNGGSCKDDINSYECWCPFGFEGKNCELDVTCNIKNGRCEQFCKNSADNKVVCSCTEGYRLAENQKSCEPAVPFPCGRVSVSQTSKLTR
human activated factor IX (Homo sapiens), sequence (P00740 227-461, chain 2 of 2): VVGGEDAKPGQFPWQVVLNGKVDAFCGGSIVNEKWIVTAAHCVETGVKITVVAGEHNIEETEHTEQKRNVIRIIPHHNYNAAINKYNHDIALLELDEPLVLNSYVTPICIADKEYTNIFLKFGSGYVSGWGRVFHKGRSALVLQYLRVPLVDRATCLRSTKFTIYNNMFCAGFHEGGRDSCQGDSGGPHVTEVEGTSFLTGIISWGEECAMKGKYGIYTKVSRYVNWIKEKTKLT
human factor X (zymogen) (Homo sapiens), sequence (P00742 whole entry, looked up): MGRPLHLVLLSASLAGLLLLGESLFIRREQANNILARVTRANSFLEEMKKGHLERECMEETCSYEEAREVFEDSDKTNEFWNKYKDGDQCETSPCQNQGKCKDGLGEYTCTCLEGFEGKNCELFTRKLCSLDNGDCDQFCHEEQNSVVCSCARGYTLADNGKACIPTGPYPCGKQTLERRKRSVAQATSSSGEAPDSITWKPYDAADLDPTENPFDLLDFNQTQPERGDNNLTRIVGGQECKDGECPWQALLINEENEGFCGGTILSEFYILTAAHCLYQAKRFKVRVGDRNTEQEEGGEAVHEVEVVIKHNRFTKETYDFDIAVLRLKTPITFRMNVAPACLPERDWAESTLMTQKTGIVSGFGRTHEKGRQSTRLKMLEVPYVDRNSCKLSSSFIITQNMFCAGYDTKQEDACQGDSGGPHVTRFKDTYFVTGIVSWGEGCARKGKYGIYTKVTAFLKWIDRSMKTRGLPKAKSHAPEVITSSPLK

Mim8 (bispecific antibody): the Kd in assay [1] stood at 1.5 µM; in assay [2], 0.3 µM; in assay [3], 2.3 µM; in assay [4] it was 4.7 µM.

As a reminder, the Kd is the equilibrium constant for the complex coming apart. A higher Kd goes with lower affinity.

The values are drawn from article PMC8499050.
